Residue numbers refer to the chain shown, from its start. Numbers in names are those of the source.
B1: AGT-Mi (Homo sapiens; G161S/I340M/P11L) (protein)
chain: MASHKLLVTPLKALLKPLSIPNQLLLGPGPSNLPPRIMAAGGLQMIGSMSKDMYQIMDEIKEGIQYVFQTRNPLTLVISGSGHCALEAALVNVLEPGDSFLVGANGIWGQRAVDIGERIGARVHPMTKDPGGHYTLQEVEEGLAQHKPVLLFLTHGESSTSVLQPLDGFGELCHRYKCLLLVDSVASLGGTPLYMDRQGIDILYSGSQKALNAPPGTSLISFSDKAKKKMYSRKTKPFSFYLDIKWLANFWGCDDQPRMYHHTIPVISLYSLRESLALIAEQGLENSWRQHREAAAYLHGRLQALGLQLFVKDPALRLPTVTTVAVPAGYDWRDIVSYVMDHFDIEIMGGLGPSTGKVLRIGLLGCNATRENVDRVTEALRAALQHCPKKKL
B2: alanine:glyoxylate aminotransferase variant P319L on the major allele (enzyme, human, UniProt P21549 1-392, looked up)
chain: B1 chain with L11P, S161G, P319L, M340I
modifications: holo-form: pyridoxal 5'-phosphate in Schiff base linkage with the lysine at position 209; apo-form: without PLP
B3: alanine:glyoxylate aminotransferase variant G350D on the minor allele (enzyme, human, UniProt P21549 1-392, looked up)
chain: B1 chain with S161G, G350D
modifications: holo-form: pyridoxal 5'-phosphate in Schiff base linkage with the lysine at position 209; apo-form: without PLP
B4: AGT-Ma (Homo sapiens; S218L) (protein)
chain: B1 chain with L11P, S161G, S218L, M340I
B5: AGT-Ma (Homo sapiens; P319L) (protein)
chain: B1 chain with L11P, S161G, P319L, M340I
B6: alanine:glyoxylate aminotransferase variant G161S on the minor allele (enzyme, human, UniProt P21549 1-392, looked up)
chain: B1 chain
modifications: holo-form: pyridoxal 5'-phosphate in Schiff base linkage with the lysine at position 209; apo-form: without PLP
B7: alanine:glyoxylate aminotransferase variant S187F on the major allele (enzyme, human, UniProt P21549 1-392, looked up)
chain: B1 chain with L11P, S161G, S187F, M340I
modifications: holo-form: pyridoxal 5'-phosphate in Schiff base linkage with the lysine at position 209; apo-form: without PLP
B8: alanine:glyoxylate aminotransferase variant G161C on the minor allele (enzyme, human, UniProt P21549 1-392, looked up)
chain: B1 chain with S161C
modifications: holo-form: pyridoxal 5'-phosphate in Schiff base linkage with the lysine at position 209; apo-form: without PLP
B9: alanine:glyoxylate aminotransferase variant S218L on the major allele (enzyme, human, UniProt P21549 1-392, looked up)
chain: B1 chain with L11P, S161G, S218L, M340I
modifications: holo-form: pyridoxal 5'-phosphate in Schiff base linkage with the lysine at position 209; apo-form: without PLP
B10: alanine:glyoxylate aminotransferase variant S158L on the major allele (enzyme, human, UniProt P21549 1-392, looked up)
chain: B1 chain with L11P, S158L, S161G, M340I
modifications: holo-form: pyridoxal 5'-phosphate in Schiff base linkage with the lysine at position 209; apo-form: without PLP
B11: alanine:glyoxylate aminotransferase variant D183N on the major allele (enzyme, human, UniProt P21549 1-392, looked up)
chain: B1 chain with L11P, S161G, D183N, M340I
modifications: holo-form: pyridoxal 5'-phosphate in Schiff base linkage with the lysine at position 209; apo-form: without PLP
B12: alanine:glyoxylate aminotransferase variant W108R on the minor allele (enzyme, human, UniProt P21549 1-392, looked up)
chain: B1 chain with W108R, S161G
modifications: holo-form: pyridoxal 5'-phosphate in Schiff base linkage with the lysine at position 209; apo-form: without PLP

Legend:
[1] = substrate: O=CC(=O)O; test: spectrophotometric assay of pyruvate, coupled lactate dehydrogenase; type: biochemical, Homo sapiens; conditions: saturating L-alanine as co-substrate; saturating PLP
dynamic light scattering = molecular target: the molecule itself; test: dynamic light scattering
[2] = substrate: C[C@H](N)C(=O)O; test: spectrophotometric assay of pyruvate, coupled lactate dehydrogenase; type: biochemical, Homo sapiens; conditions: saturating glyoxylate as co-substrate; saturating PLP

Protein | stoichiometry N (dynamic light scattering) | further results
B1 | – | Km [1]: 630 ± 70 µM; kcat [1]: 58 ± 2 s⁻¹; kcat/Km [1]: 92000 ± 2000 M⁻¹ s⁻¹
B2 | 2 | –
B3 | 2 | –
B4 | – | Km [2]: 29000 ± 6000 µM; kcat [2]: 2.7 ± 0.1 s⁻¹; kcat/Km [2]: 90 ± 20 M⁻¹ s⁻¹
B5 | – | Km [1]: 110 ± 20 µM; kcat [1]: 26.2 ± 0.7 s⁻¹; kcat/Km [1]: 238000 ± 44000 M⁻¹ s⁻¹
B6 | 2 | –
B7 | 2 | –
B8 | 2 | –
B9 | 2 | –
B10 | 2 | –
B11 | 2 | –
B12 | 2 | –
